Among the data in publication doi:10.1101/2021.11.18.469126 are Kd and cooperativity factor α (stabilisation of the pair by fusicoccin-A) values, retold here.

The test has as its target TASK3 (UniProt Q9NPC2). The experiment in a line: fluorescence polarisation.
Chain of UniProt Q9NPC2 (Q9NPC2 whole entry): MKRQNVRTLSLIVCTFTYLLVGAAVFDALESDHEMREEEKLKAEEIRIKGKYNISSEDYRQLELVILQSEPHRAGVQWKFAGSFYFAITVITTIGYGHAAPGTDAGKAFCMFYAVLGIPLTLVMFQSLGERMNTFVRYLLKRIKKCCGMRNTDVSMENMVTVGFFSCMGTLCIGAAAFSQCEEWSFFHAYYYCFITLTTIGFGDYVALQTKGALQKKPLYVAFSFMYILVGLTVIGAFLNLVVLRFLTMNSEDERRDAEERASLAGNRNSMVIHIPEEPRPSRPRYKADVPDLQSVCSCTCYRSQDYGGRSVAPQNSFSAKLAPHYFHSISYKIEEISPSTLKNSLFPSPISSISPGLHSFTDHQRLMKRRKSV

Substance “14-3-3 protein (from UniProt P31947 1-248) (natural protein)” displayed a Kd of 4.05 µM and a cooperativity factor α (stabilisation of the pair by fusicoccin-A) of 1340.
